Measured values reported in patent publication US20160017025A1 (RAMOT AT TEL AVIV UNIVERSITY, published 2016).
Ends that are not written are not given here.

B1: F5.87 mAb (antibody, mouse IgG1, kappa, V domains shown)
VH: EVKLEESGGGLVQPGGSMKLSCAASGFTFSNAWMDWVRQSPEKGLEWVAEIRSKANNHATYYGESVKGRFTISRDDSKSSVYLQMNSLRAEDTGIYYCTATVRGGYWGQGTTLTVSS
VL: DIKMTQSPSSMYASLGERVTITCKASQDINSYLSWFQQKPGKSPKTLIYRANRLVDGVPSRFSGSGSGQDYSLTISSLEYEDMGIYYCLQYDEYPYTFGGGTKLEIKR
notes: Mouse hybridoma IgG1
B2: F5.100 (BBS3) mAb (antibody, mouse IgG1, kappa, V domains shown)
VH: EVQLQQSGPELVKPGASVKISCKASGYTFTDYNMHWVKQSHGKRLEWIGYIYPHNGGTGYNQRFKSKATLTVDKSSSTAYMELRSLTSEDSAVYYCARPGTEAYWGQGTLVTVSA
VL: DIVMTQSQKFMSTSVGDRVSVTCKASQNVGTNVAWYQQKPGQSPKPLIYSASYRYSGVPDRFTGSGSGTDFTLTISNVQSEDLAEYFCQQFNSYPLTFGAGTKLELKR
notes: Mouse hybridoma IgG1; The mature N-termini were found as EVQLQ (H chain; D = residue 21); also called F5.100 mAb; murine BBS3 mAb

Assays:
[1] = biological target: T1, APP MAP peptide WT (wild type = ISEVKMDA x8), APP aa 666-673 (also: multiple antigenic peptide, 8 copies, core not described); assay: BIAcore SPR; reference BBS1
T1 construct: Eight copies of the octapeptide as a multiple antigenic peptide; the branching core is not described; also called WT peptide
T1 peptide: ISEVKMDA
Description: (§1) The affinity of new MAbs was assessed by BIAcore. Protein G was immobilized on the CM5 chip as capturing molecule for the different mAbs. Each mAb (ligand) was bound separately to Protein G, and different APP MAP peptides were added separately to the liquid phase (analytes) at different concentrations to test the affinity of the mAb to each peptide. Each mAb was tested for its affinity to the different APP MAP peptides for aa 666-673 WT (wild type=[…], SEQ ID NO:18), IP (immunizing peptide=[…], SEQ ID NO:15), and SW ([…], SEQ ID NO:17). The chip was regenerated by HCl after each cycle of mAb-peptide.

[2] = biological target: T2, APP MAP peptide SW (double Swedish mutation = ISEVNLDA x8) (also: multiple antigenic peptide, 8 copies, core not described); assay: BIAcore SPR; mAb captured on Protein G on CM5 chip, MAP peptide as analyte
T2 construct: Eight copies as a MAP; the core is not described
T2 peptide: ISEVNLDA
Description: as §1

[3] = biological target: T3, APP MAP peptide IP (immunizing peptide = ISEVKLDA x8), half-Swedish mutation (also: multiple antigenic peptide, 8 copies, core not described); assay: as above
T3 construct: Eight copies as a MAP; the core is not described; also called MAP1-IP
T3 peptide: ISEVKLDA
Description: as §1

[4] = biological target: T1, APP MAP peptide WT (wild type = …); assay: as above
Description: as §1

Binder	fold improvement in affinity over BBS1 [1]	Kd [2]	Kd [3]	Kd [4]
B1	1000 fold	1.1 nM	1.2 nM	3.3 nM
B2	1000 fold	8.8 nM	3.8 nM	1.5 nM
